# Laboratory results taken from publication PMC3615136 (Molecular cell, 2013).
# T1: wild-type FlaI, Sulfolobus acidocaldarius (Sulfolobus acidocaldarius), Q4J9L0
# T1 chain: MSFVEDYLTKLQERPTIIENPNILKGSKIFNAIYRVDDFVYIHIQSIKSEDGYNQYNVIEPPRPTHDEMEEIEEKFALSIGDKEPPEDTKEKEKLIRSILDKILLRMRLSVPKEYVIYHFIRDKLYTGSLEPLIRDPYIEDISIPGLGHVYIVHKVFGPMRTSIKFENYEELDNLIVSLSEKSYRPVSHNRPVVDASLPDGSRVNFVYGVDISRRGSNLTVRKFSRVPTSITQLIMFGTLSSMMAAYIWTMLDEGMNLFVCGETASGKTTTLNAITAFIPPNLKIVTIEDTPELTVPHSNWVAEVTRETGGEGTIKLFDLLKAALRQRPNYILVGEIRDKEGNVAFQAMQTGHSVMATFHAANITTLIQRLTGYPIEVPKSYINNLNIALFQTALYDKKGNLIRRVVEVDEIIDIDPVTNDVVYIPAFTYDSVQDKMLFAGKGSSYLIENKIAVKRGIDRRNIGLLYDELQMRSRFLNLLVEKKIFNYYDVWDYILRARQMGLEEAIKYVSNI
# Legend:
# [1] = biological target: T1, wild-type FlaI, Sulfolobus …; assay: crystal structure; conditions: remark: other sources report otherwise
# crystal structure = biological target: the molecule itself; assay: crystal structure
# SEC = biological target: the molecule itself; assay: SEC
Binder,binding result (SEC),further results
"wild-type FlaI, Sulfolobus acidocaldarius, Q4J9L0 1-513 (enzyme) MSFVEDYLTKLQERPTIIENPNILKGSKIFNAIYRVDDFVYIHIQSIKSEDGYNQYNVIEPPRPTHDEMEEIEEKFALSIGDKEPPEDTKEKEKLIRSILDKILLRMRLSVPKEYVIYHFIRDKLYTGSLEPLIRDPYIEDISIPGLGHVYIVHKVFGPMRTSIKFENYEELDNLIVSLSEKSYRPVSHNRPVVDASLPDGSRVNFVYGVDISRRGSNLTVRKFSRVPTSITQLIMFGTLSSMMAAYIWTMLDEGMNLFVCGETASGKTTTLNAITAFIPPNLKIVTIEDTPELTVPHSNWVAEVTRETGGEGTIKLFDLLKAALRQRPNYILVGEIRDKEGNVAFQAMQTGHSVMATFHAANITTLIQRLTGYPIEVPKSYINNLNIALFQTALYDKKGNLIRRVVEVDEIIDIDPVTNDVVYIPAFTYDSVQDKMLFAGKGSSYLIENKIAVKRGIDRRNIGLLYDELQMRSRFLNLLVEKKIFNYYDVWDYILRARQMGLEEAIKYVSNI",–,stoichiometry N [1]: 6
"FlaI Walker B mutant (FlaI^E336A), full-length, Sulfolobus acidocaldarius (enzyme, UniProt Q4J9L0 1-513, looked up) MSFVEDYLTKLQERPTIIENPNILKGSKIFNAIYRVDDFVYIHIQSIKSEDGYNQYNVIEPPRPTHDEMEEIEEKFALSIGDKEPPEDTKEKEKLIRSILDKILLRMRLSVPKEYVIYHFIRDKLYTGSLEPLIRDPYIEDISIPGLGHVYIVHKVFGPMRTSIKFENYEELDNLIVSLSEKSYRPVSHNRPVVDASLPDGSRVNFVYGVDISRRGSNLTVRKFSRVPTSITQLIMFGTLSSMMAAYIWTMLDEGMNLFVCGETASGKTTTLNAITAFIPPNLKIVTIEDTPELTVPHSNWVAEVTRETGGEGTIKLFDLLKAALRQRPNYILVGAIRDKEGNVAFQAMQTGHSVMATFHAANITTLIQRLTGYPIEVPKSYINNLNIALFQTALYDKKGNLIRRVVEVDEIIDIDPVTNDVVYIPAFTYDSVQDKMLFAGKGSSYLIENKIAVKRGIDRRNIGLLYDELQMRSRFLNLLVEKKIFNYYDVWDYILRARQMGLEEAIKYVSNI",–,stoichiometry N (crystal structure): 6
"FlaI^N190E/E336A interface mutant in the Walker B background (enzyme, Sulfolobus acidocaldarius, UniProt Q4J9L0 1-513, looked up) MSFVEDYLTKLQERPTIIENPNILKGSKIFNAIYRVDDFVYIHIQSIKSEDGYNQYNVIEPPRPTHDEMEEIEEKFALSIGDKEPPEDTKEKEKLIRSILDKILLRMRLSVPKEYVIYHFIRDKLYTGSLEPLIRDPYIEDISIPGLGHVYIVHKVFGPMRTSIKFENYEELDNLIVSLSEKSYRPVSHERPVVDASLPDGSRVNFVYGVDISRRGSNLTVRKFSRVPTSITQLIMFGTLSSMMAAYIWTMLDEGMNLFVCGETASGKTTTLNAITAFIPPNLKIVTIEDTPELTVPHSNWVAEVTRETGGEGTIKLFDLLKAALRQRPNYILVGAIRDKEGNVAFQAMQTGHSVMATFHAANITTLIQRLTGYPIEVPKSYINNLNIALFQTALYDKKGNLIRRVVEVDEIIDIDPVTNDVVYIPAFTYDSVQDKMLFAGKGSSYLIENKIAVKRGIDRRNIGLLYDELQMRSRFLNLLVEKKIFNYYDVWDYILRARQMGLEEAIKYVSNI",binds,–
"FlaI^R307K/E336A interface mutant in the Walker B background (enzyme, Sulfolobus acidocaldarius, UniProt Q4J9L0 1-513, looked up) MSFVEDYLTKLQERPTIIENPNILKGSKIFNAIYRVDDFVYIHIQSIKSEDGYNQYNVIEPPRPTHDEMEEIEEKFALSIGDKEPPEDTKEKEKLIRSILDKILLRMRLSVPKEYVIYHFIRDKLYTGSLEPLIRDPYIEDISIPGLGHVYIVHKVFGPMRTSIKFENYEELDNLIVSLSEKSYRPVSHNRPVVDASLPDGSRVNFVYGVDISRRGSNLTVRKFSRVPTSITQLIMFGTLSSMMAAYIWTMLDEGMNLFVCGETASGKTTTLNAITAFIPPNLKIVTIEDTPELTVPHSNWVAEVTKETGGEGTIKLFDLLKAALRQRPNYILVGAIRDKEGNVAFQAMQTGHSVMATFHAANITTLIQRLTGYPIEVPKSYINNLNIALFQTALYDKKGNLIRRVVEVDEIIDIDPVTNDVVYIPAFTYDSVQDKMLFAGKGSSYLIENKIAVKRGIDRRNIGLLYDELQMRSRFLNLLVEKKIFNYYDVWDYILRARQMGLEEAIKYVSNI",binds,–
